# Results taken from the RNAGym collection of RNA variant scans (doi:10.1073/pnas.2313332121).
# B1: TPR t1 (parent)
# chain: GACCAAUCUGCCCUCAGAGCUCGAGAACAUCUUCGGAUGCAGAGGAGGCAGGCUUCGGUGGCGCGAUAGCGCCAACGUCCUCAACCUCCAAUGCAUCCCACCACAUGAUGAUGCCUGAAGAGCCUUGGUUUUUUG
# Variants of: B1
# Experiment: polymerase ribozyme fitness, log enrichment relative to wild type (log ratio); higher = more active; in vitro selection for triplet polymerase activity
# How it was run: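 Each subunit of a heterodimeric triplet polymerase ribozyme was mutagenized into a library by PCR, transcribed, and subjected to one round of in vitro selection, run in triplicate. Libraries were annealed with a biotinylated primer, the partner subunit and triplets, incubated frozen at −7 °C, and extended constructs were gel-excised, captured on streptavidin beads and recovered by RT-PCR. Input and output libraries were sequenced on Illumina, keeping genotypes with ≥10 input reads and ≥1 read per output. Fitness is log base 2 of genotype enrichment divided by wild-type enrichment, from inverse-variance-weighted replicate averages.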
row,Variant,polymerase ribozyme fitness (log ratio)
1,GACCAAUCUGCCCUCAGAGCUCGAGAACAUCUUCGGAUGCAGAGGAGGCUAGCUUCGGUGGCGCGAUAGCGCCAACGUCCUCAACCGCCAAUGCAUCCCACCACAAGAUGAUGCCUGAAGAGCCUUGGUUUUUUG,-2.51
2,GACCAAUCUGCCCUCAGAGCUCGAGAACAUCUUCGGAUGCAGAGGAGGCUGGCUUCGGUGGCGCGAUAACGCCAACGUCCACAACCUCCAAUGCAUCCCCCCACAUGAUGAUGCCUGAAGAGCCUUGGUUUUUUG,-4.08
3,GACCAAUCUGCCCUCAGAGCUCGAGAACAUCUUCGGAUGCAGAGGAGGCUGGCUUCGGUGGCGCGAUAGGGCCAACGUCCUCACCCUCCAAUGCAUCCCACCACAUGAUGAUGCAUGAAGAGCCUUGGUUUUUUG,-4.54
4,GACCAAUCUGCCCUCAGAGCUCGAGAACAUCUUCGGAUGCAGAGGAGGCUGGCUUCGGUGGCGCGAUAGCUCCAACGUCCUCAACCUCCAAUGCAUCCCACCACAUGAUGAUGCCUGAAGAGCCUUGGUUUUUUG,-1.94
5,GACCAAUCUGCCCUCAGAGCUCGAGAACAUCUUCGGAUGCAGAGGAGGCUGGCUUCGGUGGCGCGAUAGCGCCAACGUCCUCAACCUCCAAUGCAUCCCACCACAUGAUGAUCCCUGAAGAGCCUUGGUUUUUUG,-3.07
6,GACCAAUCUGCCCUCAGAGCUCGAGAACAUCUUCGGAUGCAGAGGAGGCUGGCUUUGGUGGCGCGAUAGCGCCAACGUCCUCAACCUCCAAUGCAUCCCACCACAUGAUGAUGCCUGAAGAGCCUUGGUUUUUUG,-0.861
7,GACCAAUCUGCCCUCAGAGCUCGAGAACAUCUUCGGAUGCAGAGGAGGCUGGCUUCGGUGGCGCGAUAGCGUGAACGUCCUCAACCUCCAAUGCAUCCCACCACAUGAUGAUGCCUGAAGAACUUUGGUUUUUUG,-0.982
8,GACCAAUCUGCCCUCAGAGCUCGAGAACAUCUUCGGAUGCAGAGGAGGCUGGCUUCGGUGGCGCGAUAGCGCCAACGUCCUCAACAUCCAAUGCAUCCCACCACAUGAUGAUGCCUGUAGAGCCUUGGUUUUUUG,-1.06
9,GACCAAUCUGCCCUCAGAGCUCGAGAACAUCUUCGGAUGCAGAGGAGGCUGGCUUUGGUGGCGUGAUAGCGCCAACGCCCUCAAACUCCAAUGCAUCCCACCACAUGAAGAUGCCUGAAGAGCCUUGGUUUUUUG,-6.76
10,GACCAAUCUGCCCUCAGAGCUCGAGAACAUCUUCGGAUGCAGAGGAGGCUGGCUUCGGUGGCGCGAUAGCGUCAACGUCCUCAACCUCCAAUGCAUCCCACCACACGAUGAUGCCUGAAGAGCCUUGGUUUUUUG,-0.84
11,GACCAAUCUGCCCUCAGAGCUCGAGAACAUCUUCGGAUGCAGAGGAGGCUGGCUUCGGUGGCGCGAUAGCGCCAACGUCCUCAACCUCCAAUGCAUCCCACCACAUGAUGAUGCCUGAACAGCCUUGGUUUUUUG,0.234
12,GACCAAUCUGCCCUCAGAGCUCGAGAACAUCUUCGGAUGCAGAGGAGGCUGGUUUCGGUGGCGGGAUAGCGCCAACGUCCUCAACCUCCAAUGCAUCCCACCACAUGAUGUUGCCUGAAGAGCUUUGGUUUUUUG,-8.17
13,GACCAAUCUGCCCUCAGAGCUCGAGAACAUCUUCGGAUGCAGAGGAGGCUGGCUUCGGUGGCGCGAUAGCGCCAAGGUCCUCAACCUCCAAUGCAUCCCACCACAUGAUGAUGCCUGAAGAGCCUUGGUUUUUUG,-1.31
14,GACCAAUCUGCCCUCAGAGCUCGAGAACAUCUUCGGAUGCAGAGGAGGCUGGCUUCGGUGGCGCGAUAGCGCCAACGUCCUCAACCUCCAAUGCAUCCCACCAUAUGAUGAUGCCUGAAGAGCCUUGGUUUUUUG,-0.896
15,GACCAAUCUGCCCUCAGAGCUCGAGAACAUCUUCGGAUGCAGAGGAGGCUGGCUUCGGUUGCGCGAUAGCGCCAACGUCCUCAACCUCCAAUGCAUCCCACCACAUGAUGAUGCCUUAAGAGCCUUGGUUUUUUG,-4.36
16,GACCAAUCUGCCCUCAGAGCUCGAGAACAUCUUCGGAUGCAGAGGAGGCUGGCUUCUGUGGCGCGAUAGCGCCAACGUCCUCAACCUCCAAUGCAUCCCACCACAUGAUGAUGCCUGAAGAGCCUUGGUUUUUUA,-2.6
17,GACCAAUCUGCCCUCAGAGCUCGAGAACAUCUUCGGAUGCAGAGGAGGCUGGCUUCGGUGGCGCGAUAGCGCCAACGUCCUCAAUCUCCAAUGCAUCCCACCACAUGAUGAUGCCUGAACAGCCUUGGUAUUUUG,-0.66
18,GACCAAUCUGCCCUCAGAGCUCGAGAACAUCUUCGGAUGCAGAGGAGGCGGGCUUCGGUGGCGCGAUAGCGCCAACGUCCUCAACCUCCAAUGCAUCCCACCACAUGAUGAUGCCAGAAGAGCCUUGGUUUUUUG,-3.15
19,GACCAAUCUGCCCUCAGAGCUCGAGAACAUCUUCGGAUGCAGAGGAGGCUGGCUUCGGUGGCGCGAUAGCGCCAACGUCCUUAACCUCCAAUGCAUCCCACCACAUGAUGAUGCCUGAUGAGCCUUGGUUUUUUG,-2.14
20,GACCAAUCUGCCCUCAGAGCUCGAGAACAUCUUCGGAUGCAGAGGAGGCUGGCUUCGGUGCCGCGAUAGCGCCAACGUCCUCAACCUCCAAUGCAUCCCACCACAUGAUGAUUCCUGAAGAGCCUUGGUUUUUUG,-5.56
21,GACCAAUCUGCCCUCAGAGCUCGAGAACAUCUUCGGAUGCAGAGGAGGCUGGAUCCGGUGGCGCGAUAGCGCUAACGUCCUCAACCUCCAAUGCAUCCCACCACAUGAUGAUGCCUGAAGAGCCUUGGUUUUUUG,-0.723
